Source: the nanobody polyreactivity screen of Harvey et al. (2022)

Experiment: yeast display, Sf9 membrane polyspecificity reagent, FACS + sequencing; frameworks hold sequencing errors
Summary of the method: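 A synthetic nanobody library was expressed on Saccharomyces cerevisiae BJ5465 by galactose induction for 36–48 hours. The library was stained for 1 hour at 4 °C with 10% biotinylated, detergent-solubilized Sf9 membrane reagent and enriched with streptavidin microbeads before FACS. Low and high (top ~1%) gates were set on anti-HA fluorescence for expression and streptavidin fluorescence for reagent binding, and each polyreactivity label reflects the gate of origin.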

Sequence | polyreactivity (PSR sort gate)
QVQLVESGGGLVQAGGSLRLSCAASGSTFWVYAMGWYRPAPGKERELVAAIDYSGGSTYYADSVKGRFTISRDNAKNTVYLQMNSLKPEDTAVYYGAAGEGQYWLWDGEGEYDYWGQGTQVTVSS | low polyreactivity
QVQLVESGGGLVQAGGSLRLSCAASGSTFWYAMGWYRQAPGKERELVAAITARGGRTYYADSVKGRFTISRDNAKNTVYLQMNSLKPEDTAVYYCAAVSTGIGARYNYWGQGTQVTVSS | high polyreactivity
QVQLVESGGGLVQAGGSLRLSCAASGSTFWYNAMGWYRQAPGKERELVAAISQSGGRTYYADSVKGRFTISRDNAKNTVYLQMNSLKPEDTAVYYCNAVSRDKSLYDYWGQGTQVTVSS | high polyreactivity
QVQLVESGGGLVQAGGSLRLSCAASGSTFWYNAMGWYRQAPGKERELVAAITQSGTRTYYADSVKGRFTISRDNAKNTVFLQMNSLKPEDTAVYYCAAGNAPYYRYGSKKYGYWGQGTQVTVSS | high polyreactivity
QVQLVESGGGLVQAGGSLRLSCAASGSTFWYNAMGWYRQAPGKERELVAAITQSGTRTYYADSVKGRFTISRDNAKNTVYLQMNSLKPEDTAVYYCAARGREWYYWGQGTQVTVSS | high polyreactivity
QVQLVESGGGLVQAGGSLRLSCAASGSTFWYNAMGWYTQAPGKERELVAAITWTGDGTYYADSVKGRFTISRDNAKNTVYLQMNSLKPEDTAVYYCAAAYFQWSTSIVGLDAWYDYWGQGTQVTVSS | low polyreactivity
QVQLVESGGGLVQAGGSLRLSCAASGSTFWYNMGWYRQAPGKERELVAAISYSSGRTYYADSVKGRFTISRDNAKNTVYLQMNSLKPEDTAVYYCAARYPRTRRYGYWGQGTQVTVSS | high polyreactivity
QVQLVESGGGLVQAGGSLRLSCAASGSTFWYYAMGWSRQAPGKERELVAAIRWSDGSTYYADSVKGRFTISRDNAKNTVYLQMNSLKPEDTAVYYCEYYYWGLGTQVTVSS | low polyreactivity
QVQLVESGGGLVQAGGSLRLSCAASGSTFWYYGMGWYRQAPGKERELVAAITRGGSTYYADSVKGRFTISRDNAKNTVYLQMNSLKPEDTAVYYCAAGISVRWSPSYYYWGQGTQVTVSS | high polyreactivity
QVQLVESGGGLVQAGGSLRLSCAASGSTFWYYVMGWYRQAPGKERELVAAISTRGDSTYYADSVKGRFTISRDNAKITVYFQMNSLKPEDTAVFDCAKSRQYSGRVRFDYWGKGTQVTVSS | low polyreactivity
QVQLVESGGGLVQAGGSLRLSCAASGSTFYANAMGWYRQAPGKERELVAAISYSGGGTNYADSVKGRFTISRDNAKNTVYLQMISLKPEDTAVYYCAKRRDYDRYRYKKTSSVRGDYWGQGTQVTVSS | low polyreactivity
QVQLVESGGGLVQAGGSLRLSCAASGSTFYAYAMGWYRQAPGKERELVAAIDSGGSTYYADSVKGRFPISRDNAKNTVYFQMNSLNPEDTAVYYCAVRHRYTRAYWGRDYWGQGTQVTVSS | low polyreactivity
QVQLVESGGGLVQAGGSLRLSCAASGSTFYAYAMGWYRQAPGKERELVAAISSDGTNYADSVKGRFTISRDNAKNTVYLQMNSLKPEDTAVYYCAADEASSRGYYDYDYWGQGTQVTVSS | low polyreactivity
QVQLVESGGGLVQAGGSLRLSCAASGSTFYAYDMGWYRQAPGKERELVAAISSGGSTYYADSVKGRFTISRDNAKNTVYLQMNSLKPEDTAVYYCAPEYTYELEASEPSDYDYWGQGTQVTVSS | low polyreactivity
QVQLVESGGGLVQAGGSLRLSCAASGSTFYAYDMGWYRQAPGKERELVAAISSGGSTYYADSVKGRFTISRDNAKNTVYLQMNSLKPEDTAVYYCATEYTYELEASEPSDYDYWGQGTQVTVSS | low polyreactivity
QVQLVESGGGLVQAGGSLRLSCAASGSTFYAYGMGWYRQAPGKERELVATITWSGGSTYYADSVKGRFTISRDNAKNTVYLQMNSLKPEDTAVYYCAARSPFPTIADGDYWGQGTQVTVSS | low polyreactivity
QVQLVESGGGLVQAGGSLRLSCAASGSTFYAYTMGWYRQAPGKERELVAAITGRGGRTYYADSVKGRFTISRDNAKNTVYLQMNSLKPEDTAVYYCAAVYRKYPYSDYDYWGQGTQVTVSS | high polyreactivity
QVQLVESGGGLVQAGGSLRLSCAASGSTFYDYAMGWYRQAPGKERELVAAITSGGSTDYADSVKGRFTISRDNAKNTVYLQMNSLKPEDTAVYYCATDTDSNYISHQFVWYDYWGQGTQVTVSS | low polyreactivity
QVQLVESGGGLVQAGGSLRLSCAASGSTFYDYDMGWYSQAPGKESELVAAITSGGSTKYADSVKGRFTISRDNAKNTVYLQMNSLKPEDTAVYYCNADSQRPAYWDGYWGQGTKVTVSS | low polyreactivity
QVQLVESGGGLVQAGGSLRLSCAASGSTFYENAKGWYRQAPGKERELVAGISRGGGSTYYADSVKGRFTISRDNAKNTVYLQMNSLKPEDTAVYYCARRPRYGVEYNYWGQGTQVTVSS | low polyreactivity
QVQLVESGGGLVQAGGSLRLSCAASGSTFYFYAMGWYRQAPGKERELVAAITGSGGSTYYADSVKGRFTISRDNAKNTVYLQMNSLKPEDTAVYYCAARFSYWKTKRAYDWGQGTQVTVSS | high polyreactivity
QVQLVESGGGLVQAGGSLRLSCAASGSTFYFYAMGWYRQAPGKERELVATISYSDGSTYYADSVKGRFTISRDNAKNTVYLQMNSLKPEDSAVYYCAKGSNDWVNFGYDYWGQGTQVTVSS | low polyreactivity

Sequence | polyreactivity (PSR sort gate)
QVQLVESGGGLVQAGGSLRLSCAASGSTFYGNAMGWYRQAPGKERELVAAIRWRGGRTYYADSVKGRFTISRDNAKNTVYLQMNSLKPEDTAVYYCNALPGVSHTQYDRVGYWGQGTQVTVSS | high polyreactivity
QVQLVESGGGLVQAGGSLRLSCAASGSTFYGYAKGWYRQAPGKERELVAAITRSGGSTYYADSVKGRFTISRDNAKNTVYLQMNSLKPEDTAVYYCAVATGPVSYRRYYWGQGTQVTVSS | high polyreactivity
QVQLVESGGGLVQAGGSLRLSCAASGSTFYGYAMGRYRQSPGKERELVAAITRSGGSTYYADSVKGRFTISRDNAKNTVYLQMNSLKPEDTEVYYCNKYGYKGGVGYDYWGQGTQVTVSS | high polyreactivity
QVQLVESGGGLVQAGGSLRLSCAASGSTFYGYAMGSYRQAPGKERELVAAISYSGSSTYYADSVKGRFTISRDNAKNTVYLQMNSLKPEDTAVFYCAVDDTHPFGPDGGGDYWGQCTQVTVSS | low polyreactivity
QVQLVESGGGLVQAGGSLRLSCAASGSTFYGYAMGWYRQAPGKERELVAAIRRIGGTTYADSVKGRFTISRDNAKNTVYLQMNSLKPVDTAVYYCAAYGFSYRYRYYYWGQGTQVTVSS | high polyreactivity
QVQLVESGGGLVQAGGSLRLSCAASGSTFYGYAMGWYRQAPGKERELVAAISSSGTRTYYADSVKGRFTISRDNAKNTVYLQMNSLKPEDTAVYYCNAYYYIPFEGRGYSKMDYWGQGTQVTVSS | high polyreactivity
QVQLVESGGGLVQAGGSLRLSCAASGSTFYGYAMGWYRQAPGKERELVAAISWRGGRTNYADSVKGRFTISRDNAKNTVYLQMNSLKPEDTAFYYCAARSYGITDYGMYSWGQGTQVTVSS | high polyreactivity
QVQLVESGGGLVQAGGSLRLSCAASGSTFYGYAMGWYRQAPGKERELVAAITRSGGSTYYADSVKGRFTISRDNAKNTVYLQMNSLKPEDTEVYYCNKYGYKGGVGYDYWGQGTQVTVSS | high polyreactivity
QVQLVESGGGLVQAGGSLRLSCAASGSTFYGYAMGWYRQAPGKERELVAAITRSGGSTYYADSVKGRFTISRDNAKYTVYLQMNSLKPEDTEVYYCNKYGYKGGVGYDYWGQGTQVTVSS | high polyreactivity
QVQLVESGGGLVQAGGSLRLSCAASGSTFYGYAMGWYRQAPGKERELVAAITSTVITDYADSVKGRFTISRDNAKNTVYLQMNSLKPEDTAVYYCNKDRATRVTAEFRGDDDYWGQGTQVTVSS | low polyreactivity
QVQLVESGGGLVQAGGSLRLSCAASGSTFYGYAMGWYRQAPGKERELVAAITYSGGSTYYADSVKGRFTISRDNAKNTVYLQMNSLKPEDTAVYYCAATWLWFRRYRYDYWGQGTQVTVSS | high polyreactivity
QVQLVESGGGLVQAGGSLRLSCAASGSTFYHNAMGWYRPAPGKERELVAAISRADVSTYYADSVKGRFTISRDNAKNTVYLQMNSLKPEDTAVYFGAAYWYGSQYKWRYDYWGQGTQVTVSS | low polyreactivity
QVQLVESGGGLVQAGGSLRLSCAASGSTFYHNVMGWYRQAPGKERELVASIDTGDSTNYADSVKGRFTISRDNAKNTVYLQMNSLITEHTAVYYCNADSYPALNKRGYEYWGQGTQVTVSS | low polyreactivity
QVQLVESGGGLVQAGGSLRLSCAASGSTFYHNVRGWYRPAPGKERELVASIDTGDSTNYADSVKGRFTISRDNAKNTVYFQMNSLTPEDTAVYYCNADSYAALNKRGYDYWGQGTQVTVSS | low polyreactivity
QVQLVESGGGLVQAGGSLRLSCAASGSTFYINAMGWYRQAPGKERELVADITVRGGNTYYADSVKGRFTISRDNAKNTVYLQMNSLKPEDTAVYYCAADDWGFWYDYWGQGTQVTVSS | high polyreactivity
QVQLVESGGGLVQAGGSLRLSCAASGSTFYINVMGWYIQAPGKERELVAAIRRRGGSTYYADSVKGRFTISRDNEKNTVYLQMNSLKPEDTAVYYCNAFSITFYDFNSWGQGTQVTVSS | low polyreactivity
QVQLVESGGGLVQAGGSLRLSCAASGSTFYIYAMGWYRQAPGKEREFFAAITWSGGRTFYADSVKGRFTISRDNAKNTVYFQMNSLKPEDTAVYYCAARFWSDKTGSRYYYWGQGTQVTVSS | high polyreactivity
QVQLVESGGGLVQAGGSLRLSCAASGSTFYIYAMGWYRQAPGKERELVAAITWRGGGTYYADSVKGRFTISRDNAKNTVYLEMNSLKPEDTAVYYCNADYPRSRGVKYDYWGQGTQVTVSS | high polyreactivity
QVQLVESGGGLVQAGGSLRLSCAASGSTFYIYAMGWYRQAPGKERELVARISGSGGSTYYADSVKGRFTISRDNAKNTVELQMNSLKPEDTAVYYCAADDIYKYYQYYAFPYYRYDYWGQGTQVTVSS | low polyreactivity
QVQLVESGGGLVQAGGSLRLSCAASGSTFYIYAMGWYRQAPGKERELVARISGSGGSTYYADSVKGRFTISRDNAKNTVYLQMNSLKPEDTAVYYCAADYIYKYYQYYAFPYYRYDYWGQGTQVTVSS | low polyreactivity
QVQLVESGGGLVQAGGSLRLSCAASGSTFYIYAMGWYRQAPGKERELVARISGSTDYADSVKGRFTISRDNAKNTVYLQMNSLKPEDTAVYYCAARYVYPYWYGDYYWGQGTQVTVSS | low polyreactivity
